The values below are quoted from earlier work in publication PMC5408752.

Data set [1] deals with NisA leader leader (Lactococcus lactis) (UniProt P13068). Briefly: isothermal titration calorimetry.
In data set [2] the target is NisA precursor (Lactococcus lactis) (UniProt P13068). Briefly: isothermal titration calorimetry.
Data set [3] concerns the target nisin (Lactococcus lactis) (UniProt P13068). Description: NMR titration.

Take NisC (from UniProt Q03202): the Kd was 3.8 µM in data set [1] and 2 µM in data set [2].

On to NisI CTD (from UniProt P42708), for which the Kd in data set [3] was 22 µM.
